From patent US20260125477A1 (BEIJING MABWORKS BIOTECH, published 2026)

Columns and labels:
[1] = biological target: T1, mouse B7-H3/CD276 protein, with His tag (mouse, UniProt Q8VE98 29-244, limits assumed); assay: SPR (Biacore T200), antibody captured on Protein A chip, His-tagged antigen injected
T1 construct: Bought protein
T1 sequence (looked up): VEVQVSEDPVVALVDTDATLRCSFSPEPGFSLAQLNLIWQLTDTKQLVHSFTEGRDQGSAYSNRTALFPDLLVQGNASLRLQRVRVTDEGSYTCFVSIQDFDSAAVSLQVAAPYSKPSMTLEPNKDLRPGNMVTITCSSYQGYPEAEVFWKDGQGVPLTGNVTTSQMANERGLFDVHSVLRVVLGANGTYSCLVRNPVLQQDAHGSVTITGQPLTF
Experimental: The fully human anti-human B7-H3 antibodies were tested for their binding affinity to human B7-H3 (4Ig), human B7-H3 (2Ig), monkey B7-H3 (monkey B7-H3/CD276 protein, with His tag, Cat #: B73-C52Ha, ACROBiosystems) and mouse B7-H3 protein (mouse B7-H3/CD276 protein, with His tag, Cat #: B73-M52H4, ACROBiosystems) by surface plasmon resonance (SPR) using Biacore T200 biosensor (Biacore, US) provided with a pre-fixed Protein A sensor chip. Briefly, the anti-human B7-H3 antibodies (1 μg/mL) were injected to the Biacore T200 biosensor at 10 μL/min for 20 sec, to achieve the desired protein density (100±30 RU).
The data as generated was analyzed using Biacore Insight V2.0.1 5.12933 with the one-to-one Langmuir binding model. The association rate (kₒₙ) and dissociation rate (koff) were obtained at the same time. The affinity was calculated as the quotient of the two kinetic rate constants (KD=koff/kₒₙ).

[2] = biological target: T2, recombinant human CD80 protein (human B7-1/CD80 protein, with His tag) (human, UniProt P33681 35-242); assay: SPR (Biacore T200), 6B5 captured on Protein A chip; response against concentration
T2 construct: Bought protein
T2 sequence (looked up): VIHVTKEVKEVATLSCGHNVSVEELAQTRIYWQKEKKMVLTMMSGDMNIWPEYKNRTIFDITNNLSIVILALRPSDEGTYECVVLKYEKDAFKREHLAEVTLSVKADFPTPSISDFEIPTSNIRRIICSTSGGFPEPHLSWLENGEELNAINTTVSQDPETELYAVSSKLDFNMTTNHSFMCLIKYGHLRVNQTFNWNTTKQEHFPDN
Experimental: (§1) The anti-human B7-H3 antibodies were tested for their binding capability to B7 family proteins by SPR using Biacore T200 biosensor (Biacore, US) provided with a pre-fixed Protein A sensor chip.
(§2) The dissociation was monitored for 600 sec. The data was analyzed using Biacore 8k evaluation software version 3.0, to obtain the binding responses, and the protein concentration-binding response curves were plotted, to determine the cross-reaction of the anti-human B7-H3 antibodies to the B7 family proteins.

[3] = biological target: T3, human B7-H4 protein, with His tag (MALS verified) (human, UniProt Q7Z7D3 29-258, limits assumed); assay: as above
T3 construct: Bought protein
T3 sequence (looked up): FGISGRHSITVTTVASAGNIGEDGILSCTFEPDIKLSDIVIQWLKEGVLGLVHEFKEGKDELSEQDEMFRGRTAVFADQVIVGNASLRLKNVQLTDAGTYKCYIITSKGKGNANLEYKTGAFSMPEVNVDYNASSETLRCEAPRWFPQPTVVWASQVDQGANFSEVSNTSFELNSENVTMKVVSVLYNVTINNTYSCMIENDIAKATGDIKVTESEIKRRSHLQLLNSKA
Experimental: as §1, §2

[4] = biological target: T4, human B7-H5/Gi24/VISTA protein, with His tag (MALS verified) (human, UniProt Q9H7M9 33-194); assay: as above
T4 construct: Bought protein
T4 sequence (looked up): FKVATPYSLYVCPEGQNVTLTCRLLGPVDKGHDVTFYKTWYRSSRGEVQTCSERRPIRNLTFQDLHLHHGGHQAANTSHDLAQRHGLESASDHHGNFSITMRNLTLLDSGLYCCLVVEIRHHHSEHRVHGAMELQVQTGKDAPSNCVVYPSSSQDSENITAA
Experimental: as §1, §2

[5] = biological target: T5, human PD-L1/B7-H1 protein, with His tag (human, UniProt Q9NZQ7 19-238); assay: as above
T5 construct: Bought protein
T5 sequence (Q9NZQ7 19-238 limits assumed): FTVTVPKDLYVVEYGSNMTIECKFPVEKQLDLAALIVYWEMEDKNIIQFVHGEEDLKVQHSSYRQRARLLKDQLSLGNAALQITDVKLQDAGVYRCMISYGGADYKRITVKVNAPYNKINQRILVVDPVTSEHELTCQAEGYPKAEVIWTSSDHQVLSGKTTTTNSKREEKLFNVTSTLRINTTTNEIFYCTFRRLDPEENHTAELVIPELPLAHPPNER
Experimental: as §1, §2

[6] = biological target: T6, human B7-H2/ICOSLG protein, with His tag (human, UniProt O75144 19-258, limits assumed); assay: as above
T6 construct: Bought protein
T6 sequence (looked up): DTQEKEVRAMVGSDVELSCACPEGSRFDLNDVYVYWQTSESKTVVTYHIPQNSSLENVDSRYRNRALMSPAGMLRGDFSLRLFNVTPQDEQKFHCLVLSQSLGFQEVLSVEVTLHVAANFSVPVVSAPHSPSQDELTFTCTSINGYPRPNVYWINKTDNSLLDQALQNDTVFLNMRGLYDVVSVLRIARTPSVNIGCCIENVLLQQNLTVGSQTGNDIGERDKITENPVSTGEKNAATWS
Experimental: as §1, §2

[7] = biological target: T7, human B7-H7/HHLA2 protein, with His tag (MALS verified) (human, UniProt Q9UM44 23-344, limits assumed); assay: as above
T7 construct: Bought protein
T7 sequence (looked up): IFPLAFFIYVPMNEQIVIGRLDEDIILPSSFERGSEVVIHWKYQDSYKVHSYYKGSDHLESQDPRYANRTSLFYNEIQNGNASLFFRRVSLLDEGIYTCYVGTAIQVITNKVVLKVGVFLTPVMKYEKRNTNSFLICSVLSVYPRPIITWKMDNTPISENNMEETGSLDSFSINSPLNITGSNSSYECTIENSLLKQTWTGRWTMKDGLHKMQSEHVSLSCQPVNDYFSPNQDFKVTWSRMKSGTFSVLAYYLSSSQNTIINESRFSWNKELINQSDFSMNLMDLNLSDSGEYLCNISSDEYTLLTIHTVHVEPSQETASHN
Experimental: as §1, §2

[8] = biological target: T2, recombinant human CD80 protein (human …); assay: SPR (Biacore T200), antibody captured on Protein A chip
Experimental: as §1, §2

[9] = biological target: T5, human PD-L1/B7-H1 protein, with His tag; assay: as above
Experimental: as §1, §2

B1: 6B5 (antibody, human IgG1, kappa, V domains shown)
VH: QVQLVESGPGLVKPSQTLSLTCTVSDGSISSGGYYWSWIRQHPGKGLEWIGYIYYSGGTYYSPSLKSRVTISVDTSKNQFSLKLTSVTAADTAVYYCARRAGYSSSFDSWGQGILVTVSS
VL: EIVLTQSPLSLPVTPGEPASISCRSSQSLLYSNGYTYLDWYLQKPGQSPQFLIYLGFNRASGVPDRFSGSGSGTDFTLKISRVEAEDVGVYYCMQGLQTPYTFGQGTKLEIKR
notes: also called 6B5-WT; Ab6B5
Question: With B1 as the binder, how does the Kd [1] read?
Answer: 274 nM

Question: And the koff [1]?
Answer: 0.0159 s⁻¹

Question: And the kon [1]?
Answer: 58300 M⁻¹ s⁻¹

Question: Does B1 bind [2]?
Answer: no binding (tested: 200 nM)

Question: Does B1 bind [3]?
Answer: no binding (tested: 200 nM)

Question: Does B1 bind [4]?
Answer: no binding (tested: 200 nM)

Question: Does B1 bind [5]?
Answer: no binding (tested: 200 nM)

Question: Does B1 bind [6]?
Answer: no binding (tested: 200 nM)

Question: Does B1 bind [7]?
Answer: no binding (tested: 200 nM)

B2: 10D7 (antibody, human IgG1, kappa, V domains shown)
VH: QVQLVQSGPGLVKPSETLSLTCTVSGGSISRSSYYWGWIRQPPGKGLEWIGNIFYAGSTYYNPSLKSRVTISVDTSKNQFSLKLSSVTAADTAVYYCARRITGTTGWFDPWGQGTLVTVSS
VL: DIQLTQSPSSLSASVGDRVTITCRASQGIRNDLGWYQQKPGKAPKLLIYAASTLQSGVPSRFSGSGSGTDFTLTISSLQPEDFATYYCLQDYNYPRTFGQGTKVEIKR
notes: also called 10D7-WT; Ab10D7
Question: Which results are given for B2?
Answer: binding result [8]: no binding (tested: 200 nM); binding result [9]: no binding (tested: 200 nM)

B3: 10F5 (antibody, human IgG1, kappa, V domains shown)
VH: QVQLVQSGAEVKKPGSSVKVSCKASGGTFSSQAISWVRQAPGQGLEWMGRIIPMLGIGDYAQSFQGRVTITADKSTSTAYLEVSSLGSEDTAVYYCAREGIAALGTNYYYGMDVWGQGTAVTVSS
VL: EIVMTQSPSSVSASVGDRVTITCRASQGISRWLAWYQQKPGKAPKLLIYVASSLQSGVPSRFSGSGSGTDFTLTISSLQPEDFATYYCQQANSFPFTFGPGTKVDIRR
notes: also called Ab10F5
Question: Does B3 bind [8]?
Answer: no binding (tested: 200 nM)

Question: Does B3 bind [9]?
Answer: no binding (tested: 200 nM)
